{
  "source": "patent US20250188166A1",
  "about": "(BRIGHT PEAK THERAPEUTICS, published 2025)",
  "binders": {"B1": {"name": "CMP2001 (other)", "heavy 1": "QVQLVQSGAEVKKPGASVKVSCKASGYTFTSYYMYWVRQAPGQGLEWMGGVNPSNGGTNFNEKFKSRVTITADKSTSTAYMELSSLRSEDTAVYYCARRDYRYDMGFDYWGQGTTVTVSSASTKGPSVFPLAPCSRSTSESTAALGCLVKDYFPEPVTVSWNSGALTSGVHTFPAVLQSSGLYSLSSVVTVPSSSLGTKTYTCNVDHKPSNTKVDKRVESKYGPPCPPCPAPEFLGGPSVFLFPPKPKDTLMISRTPEVTCVVVDVSQEDPEVQFNWYVDGVEVHNAKTKPREEQFNSTYRVVSVLTVLHQDWLNGKEYKCKVSNKGLPSSIEKTISKAKGQPREPQVYTLPPSQEEMTKNQVSLWCLVKGFYPSDIAVEWESNGQPENNYKTTPPVLDSDGSFFLYSRLTVDKSRWQEGNVFSCSVMHEALHNRFTQKSLSLSLGK", "heavy 2": "QVQLVQSGAEVKKPGASVKVSCKASGYTFTSYYMYWVRQAPGQGLEWMGGVNPSNGGTNFNEKFKSRVTITADKSTSTAYMELSSLRSEDTAVYYCARRDYRYDMGFDYWGQGTTVTVSSASTKGPSVFPLAPCSRSTSESTAALGCLVKDYFPEPVTVSWNSGALTSGVHTFPAVLQSSGLYSLSSVVTVPSSSLGTKTYTCNVDHKPSNTKVDKRVESKYGPPCPPCPAPEFLGGPSVFLFPPKPKDTLMISRTPEVTCVVVDVSQEDPEVQFNWYVDGVEVHNAKTKPREEQFNSTYRVVSVLTVLHQDWLNGKEYKCKVSNKGLPSSIEKTISKAKGQPREPQVYTLPPSQEEMTKNQVSLSCAVKGFYPSDIAVEWESNGQPENNYKTTPPVLDSDGSFFLVSRLTVDKSRWQEGNVFSCSVMHEALHNHYTQKSLSLSLGKGGGGSGGGGSGGGGSYFGKLKSKLSIIRNLNDQVLFIDQGNRPLFEDMTDSDARDNAPRTIFIISMYADSQPRGMAVAISVKCEKISTLSAENKIISFKEMNPPDNIKDTKSDIIFFQRSVPGHDNKMQFESSSYEGYFLAAEKERDLFKLILKKEDELGDRSIMFTVQNED", "light": "EIVLTQSPATLSLSPGERATISCRASKGVSTSGYSYLHWYQQKPGQAPRLLIYLASYLESGVPARFSGSGSGTDFTLTISSLEPEDFATYYCQHSRELPLTFGTGTKVEIKRTVAAPSVFIFPPSDEQLKSGTASVVCLLNNFYPREAKVQWKVDNALQSGNSQESVTEQDSKDSTYSLSSTLTLSKADYEKHKVYACEVTHQGLSSPVTKSFNRGEC", "notes": "expressed in CHO K1 cells"}},
  "key": {"[1]": {"biological_target": "T1, Biotinylated Recombinant Human PD-1/CD279-Fc Chimera (human, UniProt Q15116 25-167, biotinylated)", "T1 construct": "Bought (Biolegend #789406); also called recombinant biotinylated human PD-1", "test": "ELISA; antibody coated, biotinylated human PD-1-Fc titrated", "protocol": "(§1) The interaction of the unmodified antibodies and corresponding IL-18 immunocytokines with relevant immune cell associated antigen are measured by ELISA assay. For these studies, Corning high-binding half-area plates (Fisher Scientific, Reinach, Switzerland) are coated overnight at 4° C. with 25 μl of unmodified antibodies corresponding IL-18 immunocytokines at 5 μg/ml in PBS. Plates are then washed four times with 100 μl of PBS-0.02% Tween20. Plate surfaces are blocked with 25 μl of PBS-0.02% Tween20-1% BSA at 37° C. during 1h. […] Plates are then washed four times with 100 μl of PBS-0.02% Tween20. Twenty-five microliters of Streptavidin-Horseradish peroxidase (#RABHRP3, Merck, Buchs, Switzerland) diluted at 1:500 into PBS-0.02%Tween20-0.1% BSA are added to each well and incubated at Room Temperature during 30 min. Plates are then washed four times with 100 μl of PBS-0.02% Tween20. Fifty microliters of TMB substrate reagent (#CL07, Merck, Buchs, Switzerland) are added to each well and incubated at 37° C. during 5 min. After 5 min at 37° C., Horseradish peroxidase reaction is stopped by adding 50 μl/well of 0.5M H2SO₄ stop solution. ELISA signal is then measured at 450 nm on an ENSPIRE® plate reader from Perkin Elmer (Schwerzenbach, Switzerland)."}, "[2]": {"biological_target": "T2, IL-18R on HEK-Blue IL18R reporter cells (UniProt Q13478 19-541; O95256 20-599)", "T2 sequence (looked up) 1": "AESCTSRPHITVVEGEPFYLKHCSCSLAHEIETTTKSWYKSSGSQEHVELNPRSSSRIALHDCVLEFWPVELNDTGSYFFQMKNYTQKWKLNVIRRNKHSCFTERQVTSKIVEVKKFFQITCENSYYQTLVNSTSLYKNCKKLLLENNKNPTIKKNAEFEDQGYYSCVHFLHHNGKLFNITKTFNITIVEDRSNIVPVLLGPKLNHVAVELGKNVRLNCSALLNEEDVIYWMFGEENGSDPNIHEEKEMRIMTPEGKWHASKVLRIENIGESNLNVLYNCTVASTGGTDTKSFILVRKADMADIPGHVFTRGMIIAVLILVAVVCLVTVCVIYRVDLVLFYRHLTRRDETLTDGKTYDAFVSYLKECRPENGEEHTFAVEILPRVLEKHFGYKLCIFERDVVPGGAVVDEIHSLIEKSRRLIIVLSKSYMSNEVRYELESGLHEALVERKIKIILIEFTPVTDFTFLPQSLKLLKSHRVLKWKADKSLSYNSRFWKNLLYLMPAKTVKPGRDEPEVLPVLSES", "T2 sequence (looked up) 2": "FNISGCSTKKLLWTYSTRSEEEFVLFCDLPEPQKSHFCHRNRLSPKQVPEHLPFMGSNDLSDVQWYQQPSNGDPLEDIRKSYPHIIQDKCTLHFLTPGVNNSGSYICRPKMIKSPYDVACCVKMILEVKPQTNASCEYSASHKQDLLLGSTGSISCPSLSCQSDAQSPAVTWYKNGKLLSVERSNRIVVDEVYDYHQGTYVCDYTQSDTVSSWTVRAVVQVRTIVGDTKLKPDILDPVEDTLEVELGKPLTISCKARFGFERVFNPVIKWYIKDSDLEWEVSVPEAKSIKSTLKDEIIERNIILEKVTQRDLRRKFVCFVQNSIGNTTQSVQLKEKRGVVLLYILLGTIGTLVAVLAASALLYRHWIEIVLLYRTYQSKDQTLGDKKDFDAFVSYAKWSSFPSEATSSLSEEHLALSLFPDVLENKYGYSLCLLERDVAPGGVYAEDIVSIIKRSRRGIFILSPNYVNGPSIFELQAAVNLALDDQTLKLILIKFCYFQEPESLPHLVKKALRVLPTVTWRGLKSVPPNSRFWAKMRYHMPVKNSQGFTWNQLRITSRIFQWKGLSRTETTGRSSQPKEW", "test": "cell-based or functional assay"}, "[3]": {"biological_target": "T1, Biotinylated Recombinant Human …", "test": "ELISA: fusion immunocytokine coated on the plate (5 µg/ml), biotinylated human PD-1-Fc titrated (x-axis, Concentration (nM)), streptavidin-HRP/TMB, 450 nm", "protocol": "as §1"}, "[4]": {"biological_target": "T3, recombinant biotinylated human FcRn (human, UniProt P55899 24-297; P61769 21-119, limits assumed, biotinylated)", "T3 construct": "Kit reagent; also called human neonatal Fc receptor", "test": "AlphaLISA competition at pH 6: test molecule titrated against human IgG acceptor beads for biotinylated human FcRn on streptavidin donor beads; normalized signal"}, "[5]": {"biological_target": "T3, recombinant biotinylated human FcRn", "test": "AlphaLISA competition at pH 6; competitor human IgG acceptor beads", "protocol": "The interaction of the unmodified and of conjugated anti-PD1 antibodies with the human neonatal Fc receptor (FcRn) at pH 6 was measured using the AlphaLISA® Human FcRn Binding Kit (AL3095C) from Perkin Elmer (Schwerzenbach, Switzerland).\nAfter 90 min at 23° C. in the dark, AlphaLISA® signal was measured on an EnSpire plate reader (Excitation at 680 nm, Emission at 615 nm) from Perkin Elmer (Schwerzenbach, Switzerland)."}},
  "data": [
    {"binder": "B1", "values": [
      {"measurement": "Kd", "setting": "[1]", "value": 0.0389, "unit": "nM"},
      {"measurement": "IL-18R Hek Blue assay EC50", "setting": "[2]", "value": "> 0.2", "unit": "nM"},
      {"measurement": "EC50 (read off the curve)", "setting": "[3]", "value": "~0.03", "unit": "nM"},
      {"measurement": "IC50 (read off the curve)", "setting": "[4]", "value": "~10", "unit": "nM"},
      {"measurement": "Kd", "setting": "[5]", "value": 12.5, "unit": "nM"}
    ]}
  ]
}
